This is an account of results in patent US20040009486A1, “Compositions and methods utilizing DNA polymerases” (priority 1999, published 2004).

Read-outs that look alike come from different tables or passages of the source.

The conditions of series [1]: literature values; cited from earlier work.
The test system of series [2] is rhodamine labeled-ddNTP and primer:template (pBluescript II). Kind of series: Steady-state kinetics for rhodamine labeled ddNTPs and primer:template. The format is biochemical. The settings on record: 60° C. The procedure: Km and Vmax values for rhodamine labeled-ddNTP incorporation were measured by incubating 50 nM primer: template with limiting amounts of polymerase (0.1 units or 5 nM) and varying concentrations of rhodamine labeled-ddNTP ranging from 0.1 nM to 500 nM. Samples were incubated at 60° C. for 10 minutes. The reactions were then quenched with ice-cold 0.2 M EDTA (final concentration). Unincorporated rhodamine labeled ddNTPs were removed by purifying the extended primer:templates on CENTRI-SEP spin columns. Reactions were then dried, and the pellets dissolved in 3:1 formamide:EDTA/blue dextran and analyzed by 6% denaturing PAGE on an ABI 377 sequencer. All peak area quantitations were performed using 3.1.2 GeneScan software and Km and Vmax values were calculated using Lineweaver-Burk plots.
Km and Vmax values for primer:template were measured with limiting amounts of enzyme (0.1 units or 5 nM) in the presence of 100 nM of R110-ddGTP and varying concentrations of primer:template (pBL31G:pBluescript II) ranging from 0.5 to 100 nM. Samples were incubated for 10 minutes at 60° C. The reactions were then quenched, purified from unincorporated rhodamine labeled-ddNTPs, and analyzed as described above.
Km and Vmax values for rhodamine-ddNTP incorporation were measured as described Patel, P. H. et al. (2001). J. Biol. Chem. 276, 5044-51 by incubating 50 nM primer:template with limiting amounts of DNA polymerase (0.1 units, 5 nM) and varying concentrations of rhodamine labeled-ddNTP (0.1 nM to 500 nM). All single nucleotide incorporations with R6G-ddATP and TAMRA-ddATP employed pBL34A:pBluescript II, while reactions with TAMRA-ddCTP were performed with pBL25C:pBluescript II. The 10× reaction buffer used for JDF-3 DNA polymerase contained 200 mM Tris-HCl (pH 8.8), 100 mM KCl, 100 mM (NH4)2SO4, and 20 mM MgSO4, while the 10× reaction buffer employed with the Taq F667Y mutant consisted of 260 mM Tris-HCl (pH 9.5) and 65 mM MgCl2. Samples were incubated at 60° C. for 10 minutes, and the reactions were quenched with ice-cold 0.2 M EDTA (final concentration). Unincorporated rhodamine-ddNTPs were removed with CENTRI-SEP spin columns according to the manufacturer's manual. Reactions were dried, and the pellets were dissolved in 3:1 formamide:EDTA/blue dextran and analyzed by 6% denaturing PAGE on an ABI 377 sequencer. Peak area quantitations were performed using 3.1.2 GeneScan® software and Km and Vmax values were calculated using Lineweaver-Burk plots.
Km and Vmax values for primer:template were measured with limiting amounts of enzyme (0.1 units, 5 nM) in the presence of 100 nM dye-ddNTP and varying concentrations of primer:template (0.5-100 nM). Single nucleotide incorporations with R110-ddGTP employed pBL31G:pBluescript II, while reactions with ROX-ddCTP were carried out with pBL25C:pBluescript II. Samples were incubated and analyzed as described above.

A word on the Km: it is the concentration of substrate that gives half-maximal velocity. In the case of “Taq F667Y: ThermoSequenase, Taq F667Y mutant DNA polymerase from Amersham Pharmacia Biotech”, the “dideoxynucleotide incorporation relative to unmutated / wild type enzyme” value in series [1] is given as 3000-8000 fold. Besides, the “Vmax(fmol/min) TAMRA-ddCTP” value in series [2] (pBL25C:pBluescript) was 2.3 fmol/min. Further, the Km is 0.3 nM in series [2] (pBL25C:pBluescript, read-out: Km(nM) TAMRA-ddCTP); 8 nM in series [2] (pBL31G:pBluescript, 100 nM R110-ddGTP, read-out: Km(nM) Primer:template); 0.35 nM in series [2] (pBL34A:pBluescript, read-out: Km(nM) R6G-ddATP); 0.6 nM in series [2] (pBL34A:pBluescript, read-out: Km(nM) TAMRA-ddATP). Besides, the “Vmax(fmol/min) Primer:template” value in series [2] (pBL31G:pBluescript, 100 nM R110-ddGTP) is 7.4 fmol/min. Besides, the “Vmax(fmol/min) R6G-ddATP” value in series [2] (pBL34A:pBluescript) is 9 fmol/min. In series [2] (pBL34A:pBluescript), the “Vmax(fmol/min) TAMRA-ddATP” value turned out to be 1.9 fmol/min.
